Columns and labels:
GAL4 reporter = test: GAL4 DBD-TIF2 fusion CAT reporter transactivation assay; type: cell-based; details: Cos-1 and/or HeLa cells
Method in brief: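 Transiently transfected HeLa and Cos-1 cells received plasmids (3 μg; 1-10 μg in titration) expressing TIF2 regions or mutants fused to GAL4 DBD(1-147), plus 1 μg (17m)5-G-CAT reporter. CAT activity measured by TLC phosphoimaging or CAT ELISA, normalized to cotransfected β-galactosidase, expressed as fold over GAL4 DBD alone; mean of ≥3 experiments.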

GAL-CBP = test: two hybrid analysis of CBP-TIF2 interaction in HeLa cells; type: cell-based
Description: (e) Two hybrid analysis of the CBP-TIF2 interaction in mammalian cells in vivo. HeLa cells were transfected with 0.2 μg of the GAL4 or GALA-CBP (expressing CBP residues 1872 to 2165) expression vectors together with 0.2 μg of the VP16 or VPI6-TF2 expression vectors in the presence of 2 μg of (17m)5-TATA-CAT reporter plasmid. Fold induction relative to the GAL-CBP activity is indicated. The mean of three experiments is shown; in each case, values varied by less than ±20%.
HeLa cells were transfected with 0.2 μg of GAL4 or GAL-CBP expression vectors together with 0.2 μg of VP16 or VP16-TIF2.13 expression vectors in the presence of 1 μg of (17m)5-TATA-CAT reporter plasmid. Data are represented as fold induction of the activity seen with GAL-CBP alone. The mean and standard, deviation obtained from ten experiments are shown. The expression levels were confirmed by Western blotting with antibodies directed against GAL4 DBD and VP16 AAD (data not shown).
Furthermore, it was reported that SRC-1, which belongs to the same gene family as TIF2, interacts with CBP and p300 (Kamei, Y. et al., Cell 85:403-414 (1996); Yao, T. P. et al., Proc. Natl. Acad. Sci. USA 93:10626-10631 (1996); Hanstein, B., et al., Proc. Natl. Acad Sci USA 93:11540-11545 (1996)). Using GST-fusion protein-based interaction and animal cell-based two hybrid assays, we therefore analyzed whether TIF2 could also interact with CBP. […] A GST-CBP fusion protein was expressed in E. coli and used for puU-down assays with in vitro translated TIF2 polypeptides (FIG. 7d).

ER, RARα and RXRα LBDs = test: GST pull-down of TIF2 polypeptides with NR LBDs; type: binding; details: in vitro, with or without 10^−6 M ligand
Method in brief: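 In vitro GST-fusion pull-downs tested TIF2 deletion or point-mutant polypeptides against ER or RARα LBDs. Point-mutant binding was quantified relative to a TIF2.1 wildtype standard. Values are means of at least three experiments with SD.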

B1: TIF2.2 (TIF2 amino acids 1288-1464) (other)
chain: NPRIPQANAQQFPFPPNYGISQQPDPGFTGATTPQSPLMSPRMAHTQSPMMQQSQANPAYQAPSDINGWAQGNMGGNSMFSQQSPPHFGQQANTSMYSNNMNINVSMATNTGGMSSMNQMTGQISMTSVTSVSTSGLSSMGPEQVNDPALRGGNLFPNQLPGMDMIKQEGDTTRKYC
notes: In-vitro-translated; also called AD2
With B1 the “transcriptional activation of GAL4 reporter by GAL4 DBD fusion” value (GAL4 reporter) was “able to activate transcription”, the “interaction with GAL-CBP, two hybrid” value (GAL-CBP) was “not” and the “binding to NRs (ER, RARα LBDs)” value (ER, RARα and RXRα LBDs) was “cannot bind NRs”.
